Measured values: paper PMC9868005, “Structural and functional characterization of TraI from pKM101 reveals basis for DNA processing”

What was measured:
TraI full-length = molecular target: T1, TraI full-length (Escherichia coli? (plasmid pKM101), UniProt D9Z5Q2 3-1079); assay: EMSA; complete shift at 200 nM and above; high shift from 50 nM; EMSA: 50 nM FITC-DNA, 0-1600 nM protein, 25 mM Hepes-NaOH pH 7.0, 300 mM NaCl, room temperature 15 min; 5% PAGE, 0.75x TBE, 4 C; settings: protein: recombinant; tags: 10xHis with 3C site, cleaved off; label: 5' FITC; hairpin
T1 sequence: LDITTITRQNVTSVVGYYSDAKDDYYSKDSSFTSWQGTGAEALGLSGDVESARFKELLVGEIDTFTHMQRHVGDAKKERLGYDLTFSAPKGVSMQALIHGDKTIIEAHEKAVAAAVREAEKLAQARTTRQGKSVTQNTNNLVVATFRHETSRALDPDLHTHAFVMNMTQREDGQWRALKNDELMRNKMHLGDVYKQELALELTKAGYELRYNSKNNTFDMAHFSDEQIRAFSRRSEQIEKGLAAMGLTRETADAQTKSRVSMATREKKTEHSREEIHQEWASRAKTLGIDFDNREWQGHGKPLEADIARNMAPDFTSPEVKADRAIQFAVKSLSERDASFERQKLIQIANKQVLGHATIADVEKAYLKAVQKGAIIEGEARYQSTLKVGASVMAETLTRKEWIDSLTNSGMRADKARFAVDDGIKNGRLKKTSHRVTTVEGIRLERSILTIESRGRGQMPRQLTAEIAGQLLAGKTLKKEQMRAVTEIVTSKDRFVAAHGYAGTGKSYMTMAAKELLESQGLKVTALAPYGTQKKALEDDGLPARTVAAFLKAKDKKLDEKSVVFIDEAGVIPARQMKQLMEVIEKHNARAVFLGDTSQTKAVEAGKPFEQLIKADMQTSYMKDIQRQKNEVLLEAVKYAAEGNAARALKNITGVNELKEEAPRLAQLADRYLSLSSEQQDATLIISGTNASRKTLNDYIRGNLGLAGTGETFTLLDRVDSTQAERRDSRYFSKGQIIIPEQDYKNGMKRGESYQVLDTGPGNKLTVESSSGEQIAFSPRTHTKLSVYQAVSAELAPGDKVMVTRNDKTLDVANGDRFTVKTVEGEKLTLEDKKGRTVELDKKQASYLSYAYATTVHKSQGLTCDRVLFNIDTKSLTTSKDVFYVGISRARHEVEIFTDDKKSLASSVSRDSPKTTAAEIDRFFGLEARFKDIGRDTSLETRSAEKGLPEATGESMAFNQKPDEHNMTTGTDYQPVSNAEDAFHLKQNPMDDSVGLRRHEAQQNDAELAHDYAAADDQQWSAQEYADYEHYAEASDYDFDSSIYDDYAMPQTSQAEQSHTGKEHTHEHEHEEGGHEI

[1] = molecular target: T2, TraI trans-esterase domain (TraI-TE) (Escherichia coli? (plasmid pKM101), UniProt D9Z5Q2 1-299); assay: EMSA; apparent Kd, half-shift point; EMSA: 50 nM FITC-DNA, 0-1600 nM protein, 25 mM Hepes-NaOH pH 7.0, 300 mM NaCl, room temperature 15 min; 5% PAGE, 0.75x TBE, 4 C; settings: protein: recombinant; tags: 10xHis with 3C site, cleaved off; label: 5' FITC; hairpin
T2 sequence: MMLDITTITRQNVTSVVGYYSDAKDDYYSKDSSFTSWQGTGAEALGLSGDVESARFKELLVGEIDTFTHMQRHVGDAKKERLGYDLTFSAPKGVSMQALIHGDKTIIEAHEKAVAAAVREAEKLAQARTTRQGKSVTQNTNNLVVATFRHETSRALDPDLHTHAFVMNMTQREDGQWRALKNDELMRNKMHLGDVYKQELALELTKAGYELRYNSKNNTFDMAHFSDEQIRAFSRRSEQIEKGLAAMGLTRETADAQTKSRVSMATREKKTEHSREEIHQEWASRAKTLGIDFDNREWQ

[2] = molecular target: T2, TraI trans-esterase domain (TraI-TE); assay: EMSA; over half bound at 200 nM; EMSA: 50 nM FITC-DNA, 0-1600 nM protein, 25 mM Hepes-NaOH pH 7.0, 300 mM NaCl, room temperature 15 min; 5% PAGE, 0.75x TBE, 4 C; settings: protein: recombinant; tags: 10xHis with 3C site, cleaved off; label: 5' FITC; hairpin
[3] = molecular target: T2, TraI trans-esterase domain (TraI-TE); assay: EMSA; interaction only seen above 800 nM; EMSA: 50 nM FITC-DNA, 0-1600 nM protein, 25 mM Hepes-NaOH pH 7.0, 300 mM NaCl, room temperature 15 min; 5% PAGE, 0.75x TBE, 4 C; settings: protein: recombinant; tags: 10xHis with 3C site, cleaved off; label: 5' FITC
[4] = molecular target: T2, TraI trans-esterase domain (TraI-TE); assay: X-ray crystallography 2.1 A; divalent cation modeled as Mn2+ (identity uncertain); 10 of 11 bases modeled; EMSA: 50 nM FITC-DNA, 0-1600 nM protein, 25 mM Hepes-NaOH pH 7.0, 300 mM NaCl, room temperature 15 min; 5% PAGE, 0.75x TBE, 4 C; settings: protein: recombinant; tags: 10xHis with 3C site, cleaved off; U-turn in complex

B1: F-oriT57 (structured_DNA)
DNA: TGTGATAGCGTGATTTATCGCGCTGCGTTAGGTGTATAGCAGGTTAAGGGATAAAAA
- apparent K (half saturation) (TraI full-length): < 200 nM
- Kd [1]: < 200 nM

Binder: TGTGATAGCGTGATTTATCGCGCTGCGTTAGGTGT (structured_DNA) [F-oriT35]
- apparent K (half saturation) (TraI full-length): < 200 nM
- apparent K (half saturation) [2]: < 200 nM

B2: F-Random57 (ssDNA)
DNA: TCCGCCATGCAGACGAGACCAGTCGGAGATTACCGAGCATTCTATCAGGTCGGCGAC
- apparent K (half saturation) [3]: > 800 nM

Binder: GCGTTAGGTGT (ssDNA) [oriT11]
- binding result [4]: binds
